In patent publication US20260227407A1, “SYNTHETIC GLYCOPEPTIDES AND DERIVATIVES FOR THE EARLY-STAGE DETECTION OF CANCER BIOMARKERS IN MUC1-POSITIVE TUMORS” (FUNDACIÓN RIOJA SALUD, priority 2023, published 2026):
pKd: −log10 of the molar value.

Tests used:
[1] = target: Glycopeptide 24 (…(GalNCOEt)APPA); experiment: SPR, ratio of the KD values of glycopeptides 21 and 24 for 5E5
[2] = target: Glycopeptide 21 (…(GalNAc)APPA); experiment: SPR (Biacore X-100), 5E5 immobilised on CM5 chip, glycopeptide as analyte, steady-state fit
[3] = target: Glycopeptide 24 (…(GalNCOEt)APPA); experiment: as above
[4] = target: 5E5 (anti-MUC1) antibody; experiment: Antigen-antibody binding studies by surface plasmon resonance (SPR); design: species or system mouse; conditions: for pKd: SPR, 5E5 immobilised on CM5 chip, 20° C. and 7.5 pH
Description: Surface plasmon resonance (SPR) experiments were performed with a Biacore X-100 apparatus (Biacore, GE) in HBS-EP buffer solution at 7.5 pH (10 mM Hepes, 150 mM NaCl, 3 mM EDTA, with 2% DMSO and 0.05% Tween X100) at […]. This is the running buffer. The 5E5 antibody (from Abcam) was immobilised on a CM5 sensor chip (Biacore, GE) following the standard amine coupling method.^30 Briefly, the carboxymethyl dextran surface of flow cell 2 was activated by a 7 min injection of a 1:1 ratio of a 0.4 M aqueous solution of 1-ethyl-3-(3-dimethylaminopropyl) carbodiimide (EDC) and 0.1 M sulfo-N-hydroxysuccinimide. As such, the antibody was bound to the surface using various dilutions in 10 mM sodium acetate, 4.0. pH during a 7 min injection. […] The flow cell 1 was used as a reference and treated as the flow cell 2 (amine coupling method) without protein. Before use, 50 mM stock solutions of peptide ligand were diluted to the final concentration in the running buffer. Therefore, a series of different compounds were injected into the sensor chip at a flow rate of 30 μl/min for a period of 1 min followed by a dissociation period of 1 min. No regeneration was required. FIGS. 2A and 2B show the response-concentration curves obtained for the binding of glycopeptide 21 and 24, respectively, towards the 5E5 (anti-MUC1) antibody at 20° C. in SPR experiments.
The sensogram data were obtained in duplicate and processed with the Biae Evaluation X100 software (Biacore, GE). Experimental data from the affinity measurements were fitted to a specific two-site binding model using Prism software.

fold higher affinity than the natural peptide (21) [1] [times]	pKd [2]	pKd [3]	pKd [4]	affinity relative to the natural glycopeptide (21) ([4]; anti-MUC1 antibody 5E5, SPR) [times]	Substance
6.5	6.27	7.08			mouse monoclonal anti-MUC1 5E5 antibody
			7.08	6.5	GGGGPAPGST(GalNCOEt)APPA [Glycopeptide 24]
			6.27		GGGGPAPGST(GalNAc)APPA [Glycopeptide 21, reference compound]
